Measurements reported in article PMC12098658.

Legend:
[1] = biological target: GFP-JMY CT (aa821-983) (Mus musculus) (UniProt Q9QXM1); experiment: co-IP; L929 lysate with GFP-JMY CT, continuous 2 µM Ca2+ for 2 h, compared with continuous EGTA; anti-GFP immunoprecipitation, quantitative immunoblot
[2] = biological target: GFP-JMY CT (aa821-983) (Mus musculus) (UniProt Q9QXM1); experiment: co-IP; as a9 but lysate/antibody mixture with 2 µM Ca2+; actin CoIP/GFP IP ratio as percent difference from the Ca2+-free (1 mM EGTA) condition
[3] = biological target: GFP-JMY WH2#1 (aa841-883) (Mus musculus) (UniProt Q9QXM1); experiment: as above
Chain of GFP-JMY WH2#1 (aa841-883) (Mus musculus) (Q9QXM1 841-883): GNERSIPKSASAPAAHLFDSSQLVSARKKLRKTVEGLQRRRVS

Chain of GFP-JMY CT (aa821-983) (Mus musculus) (Q9QXM1 821-983): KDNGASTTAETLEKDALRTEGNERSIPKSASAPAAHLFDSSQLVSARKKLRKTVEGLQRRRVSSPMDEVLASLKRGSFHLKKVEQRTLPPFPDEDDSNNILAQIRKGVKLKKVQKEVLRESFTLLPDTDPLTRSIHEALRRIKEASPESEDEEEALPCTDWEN

Substance: endogenous actin from L929 cells (from UniProt P60710 1-375) (natural protein)
- percent change of coimmunoprecipitated actin with 2 µM Ca2+ against the Ca2+-free condition [1]: -80%
- percent change of coimmunoprecipitated actin with 2 µM Ca2+ against the Ca2+-free condition [2]: < -80%
- percent change of coimmunoprecipitated actin with 2 µM Ca2+ against the Ca2+-free condition [3]: < -80%
